In patent publication US20050026234A1:

Columns and labels:
[1] = target: modified kemptide LRRASLP of C4kY2.1, phosphorylated by PKA at serine 475; assay: cell-based or functional assay
[2] = target: PKC substrate sequence … of CKAR, phosphorylated by PKC at the phosphoacceptor threonine; assay: cell-based or functional assay

FRET efficiency of phosphorylated C4kY2.1, calculated after trypsin treatment (nonphosphorylated: 30%) [1] [%] | change in the emission ratio 535 nm/480 nm in cells pretreated with 10 µM H-89, then 1 mM dbcAMP [1] [%] | emission ratio of 526 nm and 476 nm of the purified PKA-phosphorylated chimera before dephosphorylation by PP1 (1.14 after) [1] | increase in the 535 nm/480 nm ratio in COS-7 cells treated with FsK and with dbcAMP [1] [%] | ratio of the emission at 526 nm and 476 nm of purified C4kY2.1 after phosphorylation by PKA catalytic subunit (1.09 before) [1] | absolute amount of FRET of purified CKAR after phosphorylation by PKC βII (38% before), estimated from emission spectra [2] [%] | Substance
20 | 46 | 1.39 | 5 | 1.42 |  | 14-3-3τ (1-232), the phosphoaminoacid binding domain of the chimeric PKA reporter protein C4kY2.1
 |  |  |  |  | 34 | FHA2 phosphothreonine binding domain from the yeast checkpoint protein rad53p, as the binding domain of CKAR (from UniProt P22216 601-681)
